Laboratory results from patent US20250339531A1, “DUX4 POLYPEPTIDES AND NUCLEIC ACIDS FOR TREATING INFLAMMATORY AND AUTOIMMUNE CONDITIONS” (Fred Hutchinson Cancer Center, priority 2021, published 2025).

B1: A0A087WW87 (protein, UniProt A0A087WW87 1-121, looked up)
chain: MRLPAQLLGLLMLWVPGSSEDIVMTQTPLSLPVTPGEPASISCRSSQSLLDSDDGNTYLDWYLQKPGQSPQLLIYTLSYRASGVPDRFSGSGSGTDFTLKISRVEAEDVGVYYCMQRIEFP
modifications: full-length
B2: O43865 (protein, UniProt O43865 1-530, looked up)
chain: MSMPDAMPLPGVGEELKQAKEIEDAEKYSFMATVTKAPKKQIQFADDMQEFTKFPTKTGRRSLSRSISQSSTDSYSSAASYTDSSDDEVSPREKQQTNSKGSSNFCVKNIKQAEFGRREIEIAEQDMSALISLRKRAQGEKPLAGAKIVGCTHITAQTAVLIETLCALGAQCRWSACNIYSTQNEVAAALAEAGVAVFAWKGESEDDFWWCIDRCVNMDGWQANMILDDGGDLTHWVYKKYPNVFKKIRGIVEESVTGVHRLYQLSKAGKLCVPAMNVNDSVTKQKFDNLYCCRESILDGLKRTTDVMFGGKQVVVCGYGEVGKGCCAALKALGAIVYITEIDPICALQACMDGFRVVKLNEVIRQVDVVITCTGNKNVVTREHLDRMKNSCIVCNMGHSNTEIDVTSLRTPELTWERVRSQVDHVIWPDGKRVVLLAEGRLLNLSCSTVPTFVLSITATTQALALIELYNAPEGRYKQDVYLLPKKMDEYVASLHLPSFDAHLTELTDDQAKYLGLNKNGPFKPNYYRY
modifications: full-length
B3: P25705 (protein, UniProt P25705 1-553, looked up)
chain: MLSVRVAAAVVRALPRRAGLVSRNALGSSFIAARNFHASNTHLQKTGTAEMSSILEERILGADTSVDLEETGRVLSIGDGIARVHGLRNVQAEEMVEFSSGLKGMSLNLEPDNVGVVVFGNDKLIKEGDIVKRTGAIVDVPVGEELLGRVVDALGNAIDGKGPIGSKTRRRVGLKAPGIIPRISVREPMQTGIKAVDSLVPIGRGQRELIIGDRQTGKTSIAIDTIINQKRFNDGSDEKKKLYCIYVAIGQKRSTVAQLVKRLTDADAMKYTIVVSATASDAAPLQYLAPYSGCSMGEYFRDNGKHALIIYDDLSKQAVAYRQMSLLLRRPPGREAYPGDVFYLHSRLLERAAKMNDAFGGGSLTALPVIETQAGDVSAYIPTNVISITDGQIFLETELFYKGIRPAINVGLSVSRVGSAAQTRAMKQVAGTMKLELAQYREVAAFAQFGSDLDAATQQLLSRGVRLTELLKQGQYSPMAIEEQVAVIYAGVRGYLDKLEPSKITKFENAFLSHVVSQHQALLGTIRADGKISEQSDAKLKEIVTNFLAGFEA
modifications: full-length
B4: O00469 (protein, UniProt O00469 1-737, looked up)
chain: MGGCTVKPQLLLLALVLHPWNPCLGADSEKPSSIPTDKLLVITVATKESDGFHRFMQSAKYFNYTVKVLGQGEEWRGGDGINSIGGGQKVRLMKEVMEHYADQDDLVVMFTECFDVIFAGGPEEVLKKFQKANHKVVFAADGILWPDKRLADKYPVVHIGKRYLNSGGFIGYAPYVNRIVQQWNLQDNDDDQLFYTKVYIDPLKREAINITLDHKCKIFQTLNGAVDEVVLKFENGKARAKNTFYETLPVAINGNGPTKILLNYFGNYVPNSWTQDNGCTLCEFDTVDLSAVDVHPNVSIGVFIEQPTPFLPRFLDILLTLDYPKEALKLFIHNKEVYHEKDIKVFFDKAKHEIKTIKIVGPEENLSQAEARNMGMDFCRQDEKCDYYFSVDADVVLTNPRTLKILIEQNRKIIAPLVTRHGKLWSNFWGALSPDGYYARSEDYVDIVQGNRVGVWNVPYMANVYLIKGKTLRSEMNERNYFVRDKLDPDMALCRNAREMGVFMYISNRHEFGRLLSTANYNTSHYNNDLWQIFENPVDWKEKYINRDYSKIFTENIVEQPCPDVFWFPIFSEKACDELVEEMEHYGKWSGGKHHDSRISGGYENVPTDDIHMKQVDLENVWLHFIREFIAPVTLKVFAGYYTKGFALLNFVVKYSPERQRSLRPHHDASTFTINIALNNVGEDFQGGGCKFLRYNCSIESPRKGWSFMHPGRLTHLHEGLPVKNGTRYIAVSFIDP
modifications: full-length
B5: P04899 (protein, UniProt P04899 1-355, looked up)
chain: MGCTVSAEDKAAAERSKMIDKNLREDGEKAAREVKLLLLGAGESGKSTIVKQMKIIHEDGYSEEECRQYRAVVYSNTIQSIMAIVKAMGNLQIDFADPSRADDARQLFALSCTAEEQGVLPDDLSGVIRRLWADHGVQACFGRSREYQLNDSAAYYLNDLERIAQSDYIPTQQDVLRTRVKTTGIVETHFTFKDLHFKMFDVGGQRSERKKWIHCFEGVTAIIFCVALSAYDLVLAEDEEMNRMHESMKLFDSICNNKWFTDTSIILFLNKKDLFEEKITHSPLTICFPEYTGANKYDEAASYIQSKFEDLNKRKDTKEIYTHFTCATDTKNVQFVFDAVTDVIIKNNLKDCGLF
modifications: full-length
B6: P20020 (protein, UniProt P20020 1-1220, looked up)
chain: MGDMANNSVAYSGVKNSLKEANHDGDFGITLAELRALMELRSTDALRKIQESYGDVYGICTKLKTSPNEGLSGNPADLERREAVFGKNFIPPKKPKTFLQLVWEALQDVTLIILEIAAIVSLGLSFYQPPEGDNALCGEVSVGEEEGEGETGWIEGAAILLSVVCVVLVTAFNDWSKEKQFRGLQSRIEQEQKFTVIRGGQVIQIPVADITVGDIAQVKYGDLLPADGILIQGNDLKIDESSLTGESDHVKKSLDKDPLLLSGTHVMEGSGRMVVTAVGVNSQTGIIFTLLGAGGEEEEKKDEKKKEKKNKKQDGAIENRNKAKAQDGAAMEMQPLKSEEGGDGDEKDKKKANLPKKEKSVLQGKLTKLAVQIGKAGLLMSAITVIILVLYFVIDTFWVQKRPWLAECTPIYIQYFVKFFIIGVTVLVVAVPEGLPLAVTISLAYSVKKMMKDNNLVRHLDACETMGNATAICSDKTGTLTMNRMTVVQAYINEKHYKKVPEPEAIPPNILSYLVTGISVNCAYTSKILPPEKEGGLPRHVGNKTECALLGLLLDLKRDYQDVRNEIPEEALYKVYTFNSVRKSMSTVLKNSDGSYRIFSKGASEIILKKCFKILSANGEAKVFRPRDRDDIVKTVIEPMASEGLRTICLAFRDFPAGEPEPEWDNENDIVTGLTCIAVVGIEDPVRPEVPDAIKKCQRAGITVRMVTGDNINTARAIATKCGILHPGEDFLCLEGKDFNRRIRNEKGEIEQERIDKIWPKLRVLARSSPTDKHTLVKGIIDSTVSDQRQVVAVTGDGTNDGPALKKADVGFAMGIAGTDVAKEASDIILTDDNFTSIVKAVMWGRNVYDSISKFLQFQLTVNVVAVIVAFTGACITQDSPLKAVQMLWVNLIMDTLASLALATEPPTESLLLRKPYGRNKPLISRTMMKNILGHAFYQLVVVFTLLFAGEKFFDIDSGRNAPLHAPPSEHYTIVFNTFVLMQLFNEINARKIHGERNVFEGIFNNAIFCTIVLGTFVVQIIIVQFGGKPFSCSELSIEQWLWSIFLGMGTLLWGQLISTIPTSRLKFLKEAGHGTQKEEIPEEELAEDVEEIDHAERELRRGQILWFRGLNRIQTQIRVVNAFRSSLYEGLEKPESRSSIHNFMTHPEFRIEDSEPHIPLIDDTDAEDDAPTKRNSSPPPSPNKNNNAVDSGIHLTIEMNKSATSSSPGSPLHSLETSL
modifications: full-length
B7: Q96MG2 (protein, UniProt Q96MG2 1-331, looked up)
chain: MSMTTRAWEELDGGLGSCQALEDHSALAETQEDRASATPRLADSGSVPHDSQVAEGPSVDTRPKKMEKEPAARGTPGTGKERLKAGASPRSVPARKKAQTAPPLQPPPPPPALSEELPWGDLSLNKCLVLASLVALLGSAFQLCRDAVPGEAALQARVPEPWVPPSSAPREPSSPLPKFEAQAPPSAPPAPRAEAEVRPKIPGSREAAENDEEEPGEATGEAVREDRVTLADRGPKERPRREGKPRKEKPRKEERPKKERPRKEERPRAAREPREALPQRWESREGGHRPWARDSRDAEPRKKQAWVSPRRPDEEQRPGSRQKLRAGKGRD
modifications: full-length

Test system: proteins that co-immunoprecipitated with DUX4-CTD constructs expressed in MB135 myoblasts
Test: LC-MS of proteins co-immunoprecipitated with DUX4-CTD (Table 1) and western validation
Type: binding, human
Set-up: key to 4. mL1dL2 + Dox + IFNG / 4. + IFNG mix / 4. longCTD + Dox + IFNG / 3. + IFNg + Dox longCTD / 3. + Dox longCTD / 3. + IFNG longCTD: peptide-spectrum matches (PSMs) per protein
Conditions: for 4. longCTD + Dox + IFNG: LC-MS counts of the listed protein co-immunoprecipitated with DUX4-CTD bait longCTD, experiment 4, Dox + IFNG; for 3. + Dox longCTD / 3. + IFNg + Dox longCTD: bait longCTD; for 3. + Dox longCTD: experiment 3, Dox only; for 3. + IFNg + Dox longCTD: experiment 3, IFNg + Dox; for SUM of PSMS: sum over all samples
Summary of the method: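 FLAG-tagged DUX4-CTD expressed in doxycycline-induced MB135 myoblasts, some also IFNG-treated; nuclear lysates in pH 7.4 NP-40 IP buffer were pre-cleared, then anti-FLAG immunoprecipitated 3 h at 4 °C. For LC-MS, FLAG-peptide elution, in-gel trypsin digest, Orbitrap analysis; proteins with ≥2 PSMs in both experiments categorised and ranked by total PSMs.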

Row | Molecule | 4. longCTD + Dox + IFNG | 3. + Dox longCTD | 3. + IFNg + Dox longCTD | SUM of PSMS
1 | B1 | 5 | 2 | 2 | 15
2 | B2 | – | 7 | 11 | 19
3 | B3 | 4 | 1 | 2 | 17
4 | B4 | 7 | – | 3 | 25
5 | B5 | 11 | – | 1 | 29
6 | B6 | 13 | 1 | 1 | 36
7 | B7 | 3 | 4 | 10 | 18
